From paper PMC6820532

Target: I-Aα^d chain fused to the human IgG1 Fc knob (non-zippered KIH-based BDC2.5mi/IA^g7, α chain) (mouse | human)
Test: SDS stability on SDS-PAGE; 12% SDS-PAGE of the purified, co-expressed heterodimers; 0.83% SDS, left unboiled ('native') or boiled (100 °C for 5 min); fully denaturing with 20 mM β2-ME

- stoichiometry N: 1
Substance: BDC2.5mi peptide tethered to the I-Aβ^g7 chain fused to the human IgG1 Fc hole (non-zippered KIH-based BDC2.5mi/IA^g7, β chain) (Fc fusion)
